Results: patent US7273847B2, “Peptides with antioxidant and antimicrobial properties” (priority 2000, dated 2007)

Legend:
[1] = test system: surfactant lipids; test: TBARS assay of copper-induced oxidation of surfactant lipids; assay type: biochemical; details: for I.C.50 (half maximal concentration) for inhibition of copper-induced oxidation of surfactant lipids / Concentration of complete inhibition / maximal protection of surfactant lipids: 10 μM Cu2+, 24 hr, TBARS; for I.C.50 (half maximal concentration) for inhibition of copper-induced oxidation of surfactant lipids: 37° C.; for Lipid peroxidation (LPO) produced by copper or iron: 24 hr incubation, 10 μM copper or iron; for TBARS Surfactant lipids Malondialdehyde: mean ± S.E.M., n=3; for IC50: assuming rat SP-A M.W.=600,000, rat SP-D M.W.=500,000, read-out: I.C.50 for inhibition of copper-induced oxidation of surfactant lipids
[2] = test system: LDL; test: Western (immunoblot) analysis of protein carbonyl derivatives formed during copper mediated LDL oxidation; assay type: biochemical, human; details: SP-A 10 μg/ml, SP-D 1 μg/ml; alkylated SP-A 50 μg/ml, alkylated SP-D 10 μg/ml
Protocol: Proteins were analyzed for carbonyl modification of amino acid side groups that occur during lipid oxidation, as described in Levine et al., Methods Enzymol. 186, 464-478 (1990). Briefly, proteins that were included in reactions mixtures with LDL and 10 μM copper were derivatized to 2,4-dinitrophenylhydrazones (DNP-hydrazones) by reaction with 2,4-dinitrophenylhydrazine (DNPH), size fractionated by 8-16% SDS-PAGE under reducing conditions and electrophorectically transferred to nitrocellulose membranes (Oxyblot, Intergen). The membrane was sequentially incubated with a rabbit anti-DNP IgG and a horseradish peroxidase-conjugated goat anti-rabbit IgG. Blots were developed by HRP-dependent oxidation of a chemiluminescent substrate, and visualized using autoradiography.
To determine if the surfactant proteins act as sinks for reactive lipid intermediates, covalent modification of SP-A and SP-D during LDL oxidation was assessed using a western analysis technique that detects carbonyl adducts (Levine et al., Methods Enzymol. 186: 464-78 (1990)). As depicted by FIG. 4, oxidative modification of proteins that occurred during copper induced LDL oxidation were determined by Western analysis using an antibody to DNP-derivatized carbonyl moieties. Reaction mixtures contained LDL only, LDL+Cu^2+, LDL+Cu^2++albumin+10 μg/ml SP-A, LDL+Cu^2++albumin+1 μg/ml SP-D, LDL+Cu^2++albumin, LDL+Cu^2++albumin+50 μg/ml iodoacetamide treated SP-A, LDL+Cu^2++albumin+10 μg/ml iodoacetamide treated SP-D, 50 μg/ml albumin+50 μg/ml iodoacetamide treated SP-A, albumin+10 μg/ml iodoacetamide treated SP-D.

[3] = test system: RAW 264.7 macrophages; test: Protection from t-BOOH induced cell death (Trypan Blue exclusion); assay type: cell-based, murine; details: 40 μM t-BOOH, 24 hrs; for Half maximal concentration for protection from t-BOOH-induced death: Trypan Blue
Protocol: A murine macrophage cell line (RAW 264.7) was adhered to 24-well plates (2×10^4 cells/well) in Ham's F12 media containing 10% FBS overnight at 37° C. in a 10% CO2 atmosphere. After washing, the cells were exposed to 40 μM tert-butyl hydroperoxide (t-BOOH) in serum free Ham's F12 for 24 hrs in the presence of various concentrations of the surfactant proteins. Viability was assessed for exclusion of the vital dye Trypan Blue.
Exposure of cultured mammalian cells to tert-butylhydroperoxide (t-BOOH) promotes a variety of toxic events including depletion of glutathione, mitochondrial dysfunction and peroxidation of membrane lipids, as described in Sestili et al., FEBS Lett. 457(1):139-143 (1999). To determine if SP-A and SP-D protect cells from oxidative stress, RAW 264.7 murine macrophages were exposed to 40 μM t-BOOH for 24 hrs in the presence of SP-A or SP-D at concentrations from 0.01 to 50 μg/ml. Cell death was assessed by staining cells with the vital dye Trypan Blue. As depicted by FIG. 5, RAW 264.7 macrophages were incubated with various concentrations of SP-A or SP-D and 40 μM t-BOOH. Cell viability was assessed by counting the percentage of cells that excluded the vital dye Trypan Blue. Data are mean±S.E.M., n=3 for collectins except 50 μg/ml point where n=2.

[4] = test system: E. coli K12; test: Radial diffusion growth inhibition in agar; assay type: cell-based; details: radial diffusion, overnight 37° C.
Protocol: (§1) A radial diffusion method was therefore used to examine the effect of the collectins and their individual structural domains on the growth of E. coli that were immobilized in agar (FIGS. 8,9). Wells were bored into plates containing agar impregnated with 2×10^6 E. coli/ml or GBS. Proteins to be tested were introduced into the wells and the plates were incubated overnight at 37° C.

[5] = test system: GBS; test: Radial diffusion growth inhibition in agar; assay type: cell-based; details: radial diffusion (not shown)
Protocol: as §1

[6] = test system: E. coli strain (E69); test: Growth inhibition (radius of clearing) of E. coli clinical isolate with or without OmpA; assay type: cell-based; details: for Growth inhibition of ΔOmpA bacteria with plasmid driven OmpA expression: OmpA replaced; for Growth inhibition of OmpA deficient (ΔOmpA) E. coli: judged by the radius of clearing around the well
Protocol: SP-A has been reported to bind to the outer membrane protein (OmpA) of Hemophilus influenza, a porin that facilitates the uptake of nutrients from the environment. The hypothesis that binding of collectins to OmpA mediates bacterial growth inhibition by SP-A and SP-D was tested. These experiments were performed using a genetically engineered clinical isolate of E. coli that was rendered OmpA deficient (ΔOmpA) by transposon mutagenesis.

[7] = test system: model surfactant lipids; test: AIBN-initiated lipid peroxidation of model surfactant lipids; assay type: biochemical; details: 3 hours incubation, with or without low concentrations of copper; preliminary data
[8] = test system: E. coli; test: Light scattering by growing bacteria in broth (O.D. 400 nm); details: for Blocking of attenuation of light scattering by J5 LPS vesicles: 300 μg/ml J5 LPS vesicles, 100 μg/ml collectin
[9] = surfactant lipids, copper-induced

| Molecule | I.C.50 (half maximal concentration) for inhibition of copper-induced oxidation of surfactant lipids [1] [µg/mL] | Concentration of complete inhibition / maximal protection of surfactant lipids [1] [µg/mL] | Lipid peroxidation (LPO) produced by copper or iron [1] | IC50 [1] [nM] | Effect of alkylation with iodoacetamide on the antioxidant effects [1, 9] | LDL oxidation in carbonyl Western analysis [2] | Concentration at which protection reached a plateau [3] | Half maximal concentration for protection from t-BOOH-induced death [3] [µg/mL] | Growth of E. coli K12 [4] | Growth of GBS [5] | Growth inhibition of ΔOmpA bacteria with plasmid driven OmpA expression [6] | Growth inhibition of ΔOmpA organism with empty vector control [6] | Growth inhibition of OmpA deficient (ΔOmpA) E. coli [6] | Growth of parental E. coli strain (E69) [6] | Inhibition of AIBN-initiated LPO [7] | Blocking of attenuation of light scattering by J5 LPS vesicles [8] | further results |
| --- | --- | --- | --- | --- | --- | --- | --- | --- | --- | --- | --- | --- | --- | --- | --- | --- | --- |
| SP-A: Native surfactant protein A isolated from the alveolar wash of silica-pretreated rats | 5.07 | 10 | block lipid peroxidation | 8.4 | completely blocked the antioxidant effects | blocked LDL oxidation without the appearance of carbonyl-modified species | approximately 1 μg/ml | 0.52 | inhibited the growth | not GBS | attenuated growth inhibition | inhibited to the same extent as the ΔOmpA organism | growth inhibition was increased | inhibited the growth | did not inhibit LPO, unless copper was added at low concentrations | completely | TBARS Surfactant lipids Malondialdehyde ([1]; Lipid + Cu2+ + 10 μg/ml protein): 0.23 ± 0.01 µM; Effect of presaturation with 70 uM copper or addition of 2 mM Ca2+ on antioxidant activity [1, 9]: neither the presaturation of SP-A with 70 uM copper, as indicated in Table 1, below, or the addition of 2 mM Ca^2+ (not shown) had a significant effect on the activity; Concentration required to achieve the same level of inhibition of oxidation ([1]; surfactant lipids, level reached by 500 μg/ml rat serum): about 5.0 μg/ml |
| SP-D: Native surfactant protein D from rat alveolar wash; mouse SP-D was used interchangeably with rat SP-D (protein) AEMKSLSQRSVPNTCTLVMCSPTENGLPGRDGRDGREGPRGEKGDPGLPGPMGLSGLQGPTGPVGPKGENGSAGEPGPKGERGLSGPPGLPGIPGPAGKEGPSGKQGNIGPQGKPGPKGEAGPKGEVGAPGMQGSTGAKGSTGPKGERGAPGVQGAPGNAGAAGPAGPAGPQGAPGSRGPPGLKGDRGVPGDRGIKGESGLPDSAALRQQMEALKGKLQRLEVAFSHYQKAALFPDGRSVGDKIFRTADSEKPFEDAQEMCKQAGGQLASPRSATENAAIQQLITAHNKAAFLSMTDVGTEGKFTYPTGEPLVYSNWAPGEPNNNGGAENCVEIFTNGQWNDKACGEQRLVICEF | 0.11 | ≥ 0.5 | block lipid peroxidation | 0.2 | completely blocked the antioxidant effects | blocked LDL oxidation without the appearance of carbonyl-modified species | approximately 1 μg/ml | 0.56 | inhibited the growth | not GBS | attenuated growth inhibition | inhibited to the same extent as the ΔOmpA organism | growth inhibition was increased | inhibited the growth | did not inhibit LPO, unless copper was added at low concentrations | partially | TBARS Surfactant lipids Malondialdehyde ([1]; Lipid + Cu2+ + 1 μg/ml protein): 0.27 ± 0.07 µM; I.C.50 fold lower than ApoAIV ([1]; surfactant lipids oxidation): ~100 fold; I.C.50 fold lower than SP-A ([1]; surfactant lipids oxidation): approximately 35 fold; Time dependent increase in light scattering ([8]; 100 μg/ml): inhibited |
